Here are results for 16 molecules from patent US20220153821A1 (PROTHENA BIOSCIENCES, published 2022).

Experiment [1] addresses T1, recombinant human tau (human, UniProt P10636-6 1-383, limits assumed).
T1 construct: also called recombinant tau
In words: SPR, Biacore T200, antibody captured by anti-human antibody, tau as analyte, single cycle, 1:1 fit. The method, then:
Affinity of purified humanized variants to tau were determined by surface plasmon resonance (SPR). SPR analysis was performed using a Biacore T200 to determine the binding kinetics of humanized antibodies to recombinant human tau. To prepare a sensor surface, anti-human antibody (GE Life Sciences) was immobilized on sensor chip CM3 via amine coupling, and antibody was captured at a level to ensure maximum binding of 50 RU. Various concentrations of recombinant tau ranging from 50-0.62 nM were passed over the captured ligand at a flow rate of 50 μL/min in running buffer (HBS+0.05% P-20, 1 mg/mL BSA), in a single cycle manner. Data were double-referenced to both an irrelevant sensor not containing antibody ligand, and 0 nM analyte concentration to account for the dissociation of ligand from the capture moiety. Data were then analyzed using a 1:1 fit. Results are presented in Table 9, in columns labeled “k₀ (M⁻¹s⁻¹), koff (s⁻¹), and Kd (nM).”
For orientation: In SPR one partner is held on a chip, and binding of the other changes the refractive index at the surface.

Experiment [2] addresses recombinant human tau (human, UniProt P10636 1-383). In words: SPR, Biacore T200: antibody captured on anti-mouse CM5 chip, recombinant human tau 10-0.14 nM as analyte, global 1:1 fit. On the procedure:
(§1) Methods: SPR analysis was performed using a Biacore T200 to determine the binding kinetics of murine antibodies to recombinant human tau. To prepare a sensor surface, anti-mouse antibody (GE Life Sciences) was immobilized on sensor chip CM5 via amine coupling, and antibody was captured at a level to ensure maximum binding of 50 RU. Various concentrations of recombinant tau ranging from 10-0.14 nM were passed over the captured ligand at a flow rate of 50 μL/min in running buffer (HBS+0.05% P-20, 1 mg/mL BSA), for 180 sec association and 900 sec dissociation. Data were double-referenced to both an irrelevant sensor not containing antibody ligand, and 0 nM analyte concentration to account for the dissociation of ligand from the capture moiety. Data was then analyzed using a global 1:1 fit.
(§2) Results: Multiple murine antibodies were selected based on their performance in a battery of ELISA assays, and their binding affinities were assessed via SPR. Antibodies were tested in parallel sets, and their binding association and dissociation rates were compared to select the highest binder to recombinant human tau.

The target of experiment [3] is T1, recombinant human tau. The experiment is described as above. The method, then:
as §1, §2

Sequence of recombinant human tau (human, UniProt P10636 1-383) (P10636 other isoform, or with tags, fused parts or gaps): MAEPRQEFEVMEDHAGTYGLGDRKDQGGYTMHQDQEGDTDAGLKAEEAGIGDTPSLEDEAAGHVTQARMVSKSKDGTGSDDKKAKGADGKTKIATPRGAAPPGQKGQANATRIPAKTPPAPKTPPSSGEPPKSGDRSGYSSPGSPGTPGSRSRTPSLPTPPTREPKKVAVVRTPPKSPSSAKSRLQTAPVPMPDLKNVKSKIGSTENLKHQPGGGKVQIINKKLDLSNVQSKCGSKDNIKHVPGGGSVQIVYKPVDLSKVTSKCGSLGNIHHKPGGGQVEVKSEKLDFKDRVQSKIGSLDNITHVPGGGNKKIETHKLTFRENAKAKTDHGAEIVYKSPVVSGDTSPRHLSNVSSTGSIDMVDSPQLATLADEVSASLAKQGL
T1 sequence (P10636 other isoform, or with tags, fused parts or gaps limits assumed): as the sequence (P10636 other isoform, or with tags, fused parts or gaps) above

B1: Hu3D6VHvb1 / Hu3D6VLvb1 (antibody, V domains shown)
VH: QVQLQQSGAELVKPGASVKLSCTASGFNIKDYYLHWVKQRPEQGLEWIGWIDPENGDTVYDPKFQGKATITADTSSNTAYLQLSSLTSEDTAVYFCSTLDFWGQGTTLTVSS
VL: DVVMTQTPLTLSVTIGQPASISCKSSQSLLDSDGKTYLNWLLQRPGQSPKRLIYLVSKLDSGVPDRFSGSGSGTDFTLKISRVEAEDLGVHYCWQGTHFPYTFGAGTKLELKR
notes: Humanized 3D6 variant, transiently expressed as intact antibody in HEK-293 cells; also called VHvb1/VLvb1
In general, Kd refers to the free concentration of one partner at which half of the binding sites on the other are occupied at equilibrium, for simple one-to-one binding. Usually koff stands for the rate constant with which the complex falls apart. As a reminder, the kon is the second-order rate constant of association. On to B1, for which, in the experiment with recombinant human tau [1], the Kd was 0.64 nM, the koff was 0.0009 s⁻¹ and the kon came to 1.4e+06 M⁻¹ s⁻¹.

B2: 8A4 (antibody, V domains shown)
VH: EVQLQQSGAELVRPGALVKLSCKASGFNIKDYYIHWVKQRPEQGLEWIGWIDPENGDTVYDPQFQDKANITADTSSNTAYLQLSSLTSEGTAVYYCSTLDFWGQGTTLTVSS
VL: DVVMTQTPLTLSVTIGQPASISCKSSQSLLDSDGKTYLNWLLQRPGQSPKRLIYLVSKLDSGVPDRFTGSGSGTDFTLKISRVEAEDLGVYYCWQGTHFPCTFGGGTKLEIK
Consider B2, for which, in the experiment with recombinant human tau [2], the Kd is 3.8 nM, the koff came to 0.00227 s⁻¹ and the on-rate (kon) was determined as 599000 M⁻¹ s⁻¹.

B3: mouse 3D6 antibody (antibody, V domains shown)
VH: EVQLQQSGADLVRPGALVKLSCKASGFNIKDYYLHWVRQRPEQGLEWIGWIDPENGDTVYDPKFQGKATITADTSSNTAYLQLGSLTSEDTAVYFCSTLDFWGQGTTLTVSS
VL: not shown
notes: Mouse monoclonal antibody from hybridoma; also called murine 3D6; m3D6
For B3, in the experiment with recombinant human tau [3], the dissociation constant Kd was found to be 0.46 nM, the dissociation rate constant (koff) was 0.00119 s⁻¹ and the association rate constant (kon) amounted to 2.58e+06 M⁻¹ s⁻¹.

B4: anti-tau antibody 5G8 (antibody, V domains shown)
VH: EVQLQQSGAELVRSGASVRLSCTASGFNIKDYYMHWVRQRPEQGLEWIGWIDPENGDTVYAPKFQGKATMTSDTSSNTAYLHLSSLTSEDTAVYYCSPLDFWGQGTTLTVSS
VL: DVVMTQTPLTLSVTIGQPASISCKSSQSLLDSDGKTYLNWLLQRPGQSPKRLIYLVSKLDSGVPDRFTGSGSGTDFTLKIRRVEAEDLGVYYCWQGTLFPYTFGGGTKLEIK
As to B4, in the experiment with recombinant human tau [2], the Kd was determined as 6.78 nM, the off-rate (koff) came to 0.00254 s⁻¹ and the kon came out at 375000 M⁻¹ s⁻¹.

B5: Hu3D6VHvb4 / Hu3D6VLvb2 (antibody, V domains shown)
VH: EVQLVQSGAEVVKPGATVKISCKASGFTIKDYYLHWVRQRPGKGLEWIGWIDPENGDTIYDPKFQGRVTITADTSTDTAYMELSSLRSEDTAVYYCSTLDFWGQGTLVTVSS
VL: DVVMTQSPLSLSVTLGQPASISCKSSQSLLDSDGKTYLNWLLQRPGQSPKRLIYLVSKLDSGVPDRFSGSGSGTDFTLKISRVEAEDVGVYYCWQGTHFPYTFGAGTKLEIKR
notes: Humanized 3D6 variant, expressed as intact antibody in HEK-293 cells; also called VHvb4/VLvb2
For B5, in the experiment with recombinant human tau [1], the Kd came out at 4.2 nM, the koff worked out at 0.0029 s⁻¹ and the on-rate (kon) turned out to be 690000 M⁻¹ s⁻¹.

B6: Hu3D6VHvb2 / Hu3D6VLvb2 (antibody, V domains shown)
VH: EVQLVQSGAEVVKPGASVKISCKASGFNIKDYYLHWVRQRPGKGLEWIGWIDPENGDTVYDPKFQGRATITADTSTDTAYLELSSLTSEDTAVYFCSTLDFWGQGTLVTVSS
VL: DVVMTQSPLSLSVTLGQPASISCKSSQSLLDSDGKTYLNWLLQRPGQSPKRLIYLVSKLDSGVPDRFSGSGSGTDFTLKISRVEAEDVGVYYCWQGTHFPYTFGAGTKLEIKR
notes: Humanized 3D6 variant, expressed as intact antibody in HEK-293 cells; also called VHvb2/VLvb2
B6: in the experiment with recombinant human tau [1], the dissociation constant Kd stood at 0.04 nM, the koff is 5.7e-05 s⁻¹ and the kon is 1.5e+06 M⁻¹ s⁻¹.

B7: Hu3D6VHvb6 / Hu3D6VLvb3 (antibody, V domains shown)
VH: EVQLVQSGAEVVKPGATVKISCKASGFTIKDYYLHWVRQRPGKGLEWIGWIDPEDGETVYDPKFQGRVTITADTSTDTAYMELSSLRSEDTAVYFCSTLDFWGQGTLVTVSS
VL: DVVMTQSPLSLSVTLGEPASISCRSSQSLLDSDGKTYLNWLQQRPGQSPRRLIYLVSKLDSGVPDRFSGSGSGTDFTLKISRVEAEDVGVYYCWQGTHFPYTFGQGTKLEIKR
notes: Humanized 3D6 variant, expressed as intact antibody in HEK-293 cells; also called VHvb6/VLvb3
For B7, in the experiment with recombinant human tau [1], the Kd was determined as 0.152 nM, the koff is 0.000538 s⁻¹ and the association rate constant (kon) is 3.54e+06 M⁻¹ s⁻¹.

B8: Hu3D6VHvb5 / Hu3D6VLvb2 (antibody, V domains shown)
VH: EVQLVQSGAEVVKPGATVKISCKASGFTIKDYYLHWVRQRPGKGLEWIGWIDPEDGETIYDPKFQGRVTITADTSTDTAYMELSSLRSEDTAVYYCSTLDFWGQGTLVTVSS
VL: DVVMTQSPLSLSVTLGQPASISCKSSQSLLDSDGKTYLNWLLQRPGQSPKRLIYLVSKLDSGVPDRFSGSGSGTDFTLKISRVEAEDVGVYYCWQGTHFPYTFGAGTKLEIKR
notes: Humanized 3D6 variant, expressed as intact antibody in HEK-293 cells; also called VHvb5/VLvb2
Consider B8, for which, in the experiment with recombinant human tau [1], the dissociation constant (Kd) came out at 1.44 nM, the koff is 0.0026 s⁻¹ and the kon is 1.8e+06 M⁻¹ s⁻¹.

B9: Hu3D6VHvb7 / Hu3D6VLvb3 (antibody, V domains shown)
VH: EVQLVQSGAEVVKPGATVKISCKASGFTIKDYYLHWVRQRPGKGLEWIGWIDPEDGETVYDPKFQGRVTITADTSTDTAYMELSSLRSEDTAVYYCSTLDFWGQGTLVTVSS
VL: DVVMTQSPLSLSVTLGEPASISCRSSQSLLDSDGKTYLNWLQQRPGQSPRRLIYLVSKLDSGVPDRFSGSGSGTDFTLKISRVEAEDVGVYYCWQGTHFPYTFGQGTKLEIKR
notes: Humanized 3D6 variant, expressed as intact antibody in HEK-293 cells; also called VHvb7/VLvb3
B9: in the experiment with recombinant human tau [1], the dissociation constant Kd came out at 0.209 nM, the koff was 0.00077 s⁻¹ and the kon came to 3.69e+06 M⁻¹ s⁻¹.

B10: Hu3D6VHvb6 / Hu3D6VLvb2 (antibody, V domains shown)
VH: EVQLVQSGAEVVKPGATVKISCKASGFTIKDYYLHWVRQRPGKGLEWIGWIDPEDGETVYDPKFQGRVTITADTSTDTAYMELSSLRSEDTAVYFCSTLDFWGQGTLVTVSS
VL: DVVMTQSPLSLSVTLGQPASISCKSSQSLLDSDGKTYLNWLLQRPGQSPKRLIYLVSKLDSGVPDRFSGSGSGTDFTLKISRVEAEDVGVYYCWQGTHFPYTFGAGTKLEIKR
notes: Humanized 3D6 variant, expressed as intact antibody in HEK-293 cells; also called VHvb6/VLvb2
As for B10, in the experiment with recombinant human tau [1], the Kd came to 0.107 nM, the koff worked out at 0.000369 s⁻¹ and the kon came to 3.45e+06 M⁻¹ s⁻¹.

B11: Hu3D6VHvb3 / Hu3D6VLvb3 (antibody, V domains shown)
VH: EVQLVQSGAEVVKPGATVKISCKASGFNIKDYYLHWVRQRPGKGLEWIGWIDPENGDTIYDPKFQGRATITADTSTDTAYMELSSLRSEDTAVYYCSTLDFWGQGTLVTVSS
VL: DVVMTQSPLSLSVTLGEPASISCRSSQSLLDSDGKTYLNWLQQRPGQSPRRLIYLVSKLDSGVPDRFSGSGSGTDFTLKISRVEAEDVGVYYCWQGTHFPYTFGQGTKLEIKR
notes: Humanized 3D6 variant, expressed as intact antibody in HEK-293 cells; also called VHvb3/VLvb3
Turning to B11, in the experiment with recombinant human tau [1], the Kd is 1.13 nM, the koff came out at 0.0018 s⁻¹ and the kon came out at 1.6e+06 M⁻¹ s⁻¹.

B12: Hu3D6VHvb2 / Hu3D6VLvb3 (antibody, V domains shown)
VH: EVQLVQSGAEVVKPGASVKISCKASGFNIKDYYLHWVRQRPGKGLEWIGWIDPENGDTVYDPKFQGRATITADTSTDTAYLELSSLTSEDTAVYFCSTLDFWGQGTLVTVSS
VL: DVVMTQSPLSLSVTLGEPASISCRSSQSLLDSDGKTYLNWLQQRPGQSPRRLIYLVSKLDSGVPDRFSGSGSGTDFTLKISRVEAEDVGVYYCWQGTHFPYTFGQGTKLEIKR
notes: Humanized 3D6 variant, expressed as intact antibody in HEK-293 cells; also called VHvb2/VLvb3
For B12, in the experiment with recombinant human tau [1], the equilibrium dissociation constant (Kd) was 0.19 nM, the off-rate constant (koff) worked out at 0.0003 s⁻¹ and the kon was determined as 1.6e+06 M⁻¹ s⁻¹.

B13: Hu3D6VHvb3 / Hu3D6VLvb2 (antibody, V domains shown)
VH: EVQLVQSGAEVVKPGATVKISCKASGFNIKDYYLHWVRQRPGKGLEWIGWIDPENGDTIYDPKFQGRATITADTSTDTAYMELSSLRSEDTAVYYCSTLDFWGQGTLVTVSS
VL: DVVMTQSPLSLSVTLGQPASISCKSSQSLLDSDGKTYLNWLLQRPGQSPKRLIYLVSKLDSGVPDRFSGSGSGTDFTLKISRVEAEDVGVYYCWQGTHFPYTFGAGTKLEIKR
notes: Humanized 3D6 variant, expressed as intact antibody in HEK-293 cells; also called VHvb3/VLvb2
With B13, in the experiment with recombinant human tau [1], the Kd came to 1.07 nM, the dissociation rate constant (koff) turned out to be 0.0015 s⁻¹ and the kon was 1.4e+06 M⁻¹ s⁻¹.

B14: Hu3D6VHvb4 / Hu3D6VLvb3 (antibody, V domains shown)
VH: EVQLVQSGAEVVKPGATVKISCKASGFTIKDYYLHWVRQRPGKGLEWIGWIDPENGDTIYDPKFQGRVTITADTSTDTAYMELSSLRSEDTAVYYCSTLDFWGQGTLVTVSS
VL: DVVMTQSPLSLSVTLGEPASISCRSSQSLLDSDGKTYLNWLQQRPGQSPRRLIYLVSKLDSGVPDRFSGSGSGTDFTLKISRVEAEDVGVYYCWQGTHFPYTFGQGTKLEIKR
notes: Humanized 3D6 variant, expressed as intact antibody in HEK-293 cells; also called VHvb4/VLvb3
Turning to B14, in the experiment with recombinant human tau [1], the dissociation constant (Kd) amounted to 3.74 nM, the koff is 0.0034 s⁻¹ and the on-rate constant (kon) came to 910000 M⁻¹ s⁻¹.

B15: Hu3D6VHvb7 / Hu3D6VLvb2 (antibody, V domains shown)
VH: EVQLVQSGAEVVKPGATVKISCKASGFTIKDYYLHWVRQRPGKGLEWIGWIDPEDGETVYDPKFQGRVTITADTSTDTAYMELSSLRSEDTAVYYCSTLDFWGQGTLVTVSS
VL: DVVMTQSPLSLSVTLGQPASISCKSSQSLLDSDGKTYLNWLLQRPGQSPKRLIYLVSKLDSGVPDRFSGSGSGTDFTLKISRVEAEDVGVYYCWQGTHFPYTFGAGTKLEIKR
notes: Humanized 3D6 variant, expressed as intact antibody in HEK-293 cells; also called VHvb7/VLvb2
Regarding B15, in the experiment with recombinant human tau [1], the Kd was 0.252 nM, the koff stood at 0.000779 s⁻¹ and the on-rate constant (kon) came out at 3.09e+06 M⁻¹ s⁻¹.

B16: Hu3D6VHvb5 / Hu3D6VLvb3 (antibody, V domains shown)
VH: EVQLVQSGAEVVKPGATVKISCKASGFTIKDYYLHWVRQRPGKGLEWIGWIDPEDGETIYDPKFQGRVTITADTSTDTAYMELSSLRSEDTAVYYCSTLDFWGQGTLVTVSS
VL: DVVMTQSPLSLSVTLGEPASISCRSSQSLLDSDGKTYLNWLQQRPGQSPRRLIYLVSKLDSGVPDRFSGSGSGTDFTLKISRVEAEDVGVYYCWQGTHFPYTFGQGTKLEIKR
notes: Humanized 3D6 variant, expressed as intact antibody in HEK-293 cells; also called VHvb5/VLvb3
Turning to B16, in the experiment with recombinant human tau [1], the dissociation constant (Kd) was determined as 1.4 nM, the off-rate (koff) is 0.0028 s⁻¹ and the kon turned out to be 2e+06 M⁻¹ s⁻¹.
